B1: EEHEE_rd3_1049 (parent)
chain: TTVKLGDIKVTFDNPEKAKKYAQKLAKIYQLTVHVHGDTIHVK

The variants in the data set derive from B1. Description: folding stability dG (cDNA display proteolysis); higher = more stable. As to conditions: PBS, room temperature.
As for TTVKLGDIKVTFDNPEKVKKYAQKLAKIYQLTVHVHGDTIHVK [A18V], the “folding stability dG” value turned out to be 0.492 kcal/mol.

Take TTVKLGDIKVTFDNPEKWKKYAQKLAKIYQLTVHVHGDTIHVK [A18W]: the “folding stability dG” value stood at 1.26 kcal/mol.

TTVKLGDIKVTFDNPEKSKKYAQKLAKIYQLTVHVHGDTIHVK [A18S]: the “folding stability dG” value stood at 0.232 kcal/mol.

Turning to TTVKLGDIKVTFDNPEKQKKYAQKLAKIYQLTVHVHGDTIHVK [A18Q], the “folding stability dG” value was determined as 0.175 kcal/mol.

As to TTVKLGDIKVTFDNPEKTKKYAQKLAKIYQLTVHVHGDTIHVK [A18T], the “folding stability dG” value was 0.288 kcal/mol.

On to TTVKLGDIKVTFDNPEKYKKYAQKLAKIYQLTVHVHGDTIHVK [A18Y], for which the “folding stability dG” value came to 0.624 kcal/mol.

Take TTVKLGDIKVTFDNPEKRKKYAQKLAKIYQLTVHVHGDTIHVK [A18R]: the “folding stability dG” value is 0.343 kcal/mol.

Regarding TTVKLGDIKVTFDNPEKAKFYAQKLAKIYQLTVHVHGDTIHVK [K20F], the “folding stability dG” value worked out at 1.8 kcal/mol.

As to TTVKLGDIKVTFDNPEKAKDYAQKLAKIYQLTVHVHGDTIHVK [K20D], the “folding stability dG” value worked out at 1.55 kcal/mol.

Take TTVKLGDIKVTFDNPEKAKVYAQKLAKIYQLTVHVHGDTIHVK [K20V]: the “folding stability dG” value is 1.78 kcal/mol.

TTVKLGDIKVTFDNPEKAKAYAQKLAKIYQLTVHVHGDTIHVK [K20A]: the “folding stability dG” value was 2.27 kcal/mol.

Take TTVKLGDIKVTFDNPEKAKPYAQKLAKIYQLTVHVHGDTIHVK [K20P]: the “folding stability dG” value was -0.125 kcal/mol.

Regarding TTVKLGDIKVTFDNPEKAKHYAQKLAKIYQLTVHVHGDTIHVK [K20H], the “folding stability dG” value was 1.67 kcal/mol.

As to TTVKLGDIKVTFDNPEKAKEYAQKLAKIYQLTVHVHGDTIHVK [K20E], the “folding stability dG” value worked out at 2.06 kcal/mol.

Consider TTVKLGDIKVTFDNPEKAKYYAQKLAKIYQLTVHVHGDTIHVK [K20Y], for which the “folding stability dG” value came out at 1.92 kcal/mol.

Turning to TTVKLGDIKVTFDNPEKAKTYAQKLAKIYQLTVHVHGDTIHVK [K20T], the “folding stability dG” value stood at 1.57 kcal/mol.

For TTVKLGDIKVTFDNPEKAKLYAQKLAKIYQLTVHVHGDTIHVK [K20L], the “folding stability dG” value was found to be 2.08 kcal/mol.

Turning to TTVKLGDIKVTFDNPEKAKSYAQKLAKIYQLTVHVHGDTIHVK [K20S], the “folding stability dG” value was determined as 1.71 kcal/mol.

Regarding TTVKLGDIKVTFDNPEKAKMYAQKLAKIYQLTVHVHGDTIHVK [K20M], the “folding stability dG” value amounted to 2.04 kcal/mol.

As for TTVKLGDIKVTFDNPEKAKCYAQKLAKIYQLTVHVHGDTIHVK [K20C], the “folding stability dG” value turned out to be 2.63 kcal/mol.

For the variant TTVKLGDIKVTFDNPEKAKRYAQKLAKIYQLTVHVHGDTIHVK [K20R], the “folding stability dG” value worked out at 2.21 kcal/mol.

For the variant TTVKLGDIKVTFDNPEKAKQYAQKLAKIYQLTVHVHGDTIHVK [K20Q], the “folding stability dG” value came out at 2.02 kcal/mol.

As for TTVKLGDIKVTFDNPEKAKGYAQKLAKIYQLTVHVHGDTIHVK [K20G], the “folding stability dG” value is 1.13 kcal/mol.

TTVKLGDIKVTFDNPEKAKWYAQKLAKIYQLTVHVHGDTIHVK [K20W]: the “folding stability dG” value worked out at 2.18 kcal/mol.

In the case of TTVKLGDIKVTFDNPEKAKIYAQKLAKIYQLTVHVHGDTIHVK [K20I], the “folding stability dG” value is 1.97 kcal/mol.

As for TTVKLGDIKVTFDNPEKAKNYAQKLAKIYQLTVHVHGDTIHVK [K20N], the “folding stability dG” value turned out to be 1.66 kcal/mol.

On to TTVKLGDIKVTFDNPEKAKKYADKLAKIYQLTVHVHGDTIHVK [Q23D], for which the “folding stability dG” value turned out to be 1.91 kcal/mol.

In the case of TTVKLGDIKVTFDNPEKAKKYARKLAKIYQLTVHVHGDTIHVK [Q23R], the “folding stability dG” value was 1.94 kcal/mol.

As for TTVKLGDIKVTFDNPEKAKKYAVKLAKIYQLTVHVHGDTIHVK [Q23V], the “folding stability dG” value was found to be 1.73 kcal/mol.

With TTVKLGDIKVTFDNPEKAKKYAIKLAKIYQLTVHVHGDTIHVK [Q23I], the “folding stability dG” value was 2.03 kcal/mol.

TTVKLGDIKVTFDNPEKAKKYAWKLAKIYQLTVHVHGDTIHVK [Q23W]: the “folding stability dG” value was 2.06 kcal/mol.

Turning to TTVKLGDIKVTFDNPEKAKKYAFKLAKIYQLTVHVHGDTIHVK [Q23F], the “folding stability dG” value was 2.14 kcal/mol.

Turning to TTVKLGDIKVTFDNPEKAKKYASKLAKIYQLTVHVHGDTIHVK [Q23S], the “folding stability dG” value is 1.58 kcal/mol.

On to TTVKLGDIKVTFDNPEKAKKYALKLAKIYQLTVHVHGDTIHVK [Q23L], for which the “folding stability dG” value came out at 2.22 kcal/mol.

With TTVKLGDIKVTFDNPEKAKKYAKKLAKIYQLTVHVHGDTIHVK [Q23K], the “folding stability dG” value was found to be 1.87 kcal/mol.

Take TTVKLGDIKVTFDNPEKAKKYAHKLAKIYQLTVHVHGDTIHVK [Q23H]: the “folding stability dG” value is 1.9 kcal/mol.

As to TTVKLGDIKVTFDNPEKAKKYAPKLAKIYQLTVHVHGDTIHVK [Q23P], the “folding stability dG” value was -0.329 kcal/mol.

Take TTVKLGDIKVTFDNPEKAKKYAEKLAKIYQLTVHVHGDTIHVK [Q23E]: the “folding stability dG” value was determined as 2.19 kcal/mol.

For the variant TTVKLGDIKVTFDNPEKAKKYAGKLAKIYQLTVHVHGDTIHVK [Q23G], the “folding stability dG” value came out at 1.06 kcal/mol.

Turning to TTVKLGDIKVTFDNPEKAKKYACKLAKIYQLTVHVHGDTIHVK [Q23C], the “folding stability dG” value amounted to 3.24 kcal/mol.

Take TTVKLGDIKVTFDNPEKAKKYAMKLAKIYQLTVHVHGDTIHVK [Q23M]: the “folding stability dG” value came to 2.25 kcal/mol.

On to TTVKLGDIKVTFDNPEKAKKYATKLAKIYQLTVHVHGDTIHVK [Q23T], for which the “folding stability dG” value was determined as 1.64 kcal/mol.

With TTVKLGDIKVTFDNPEKAKKYANKLAKIYQLTVHVHGDTIHVK [Q23N], the “folding stability dG” value amounted to 1.88 kcal/mol.

Consider TTVKLGDIKVTFDNPEKAKKYAYKLAKIYQLTVHVHGDTIHVK [Q23Y], for which the “folding stability dG” value is 2.29 kcal/mol.

For the variant TTVKLGDIKVTFDNPEKAKKYAAKLAKIYQLTVHVHGDTIHVK [Q23A], the “folding stability dG” value was 2.1 kcal/mol.

Regarding TTVKLGDIKVTFDNPEKAKKYAQALAKIYQLTVHVHGDTIHVK [K24A], the “folding stability dG” value amounted to 1.98 kcal/mol.

Regarding TTVKLGDIKVTFDNPEKAKKYAQSLAKIYQLTVHVHGDTIHVK [K24S], the “folding stability dG” value was 1.57 kcal/mol.

With TTVKLGDIKVTFDNPEKAKKYAQGLAKIYQLTVHVHGDTIHVK [K24G], the “folding stability dG” value turned out to be 1.23 kcal/mol.

For TTVKLGDIKVTFDNPEKAKKYAQELAKIYQLTVHVHGDTIHVK [K24E], the “folding stability dG” value turned out to be 1.66 kcal/mol.

On to TTVKLGDIKVTFDNPEKAKKYAQILAKIYQLTVHVHGDTIHVK [K24I], for which the “folding stability dG” value is 2.28 kcal/mol.

For TTVKLGDIKVTFDNPEKAKKYAQQLAKIYQLTVHVHGDTIHVK [K24Q], the “folding stability dG” value turned out to be 1.86 kcal/mol.

Take TTVKLGDIKVTFDNPEKAKKYAQNLAKIYQLTVHVHGDTIHVK [K24N]: the “folding stability dG” value was determined as 1.58 kcal/mol.

With TTVKLGDIKVTFDNPEKAKKYAQMLAKIYQLTVHVHGDTIHVK [K24M], the “folding stability dG” value came to 2.65 kcal/mol.

Take TTVKLGDIKVTFDNPEKAKKYAQFLAKIYQLTVHVHGDTIHVK [K24F]: the “folding stability dG” value worked out at 2.87 kcal/mol.

As to TTVKLGDIKVTFDNPEKAKKYAQWLAKIYQLTVHVHGDTIHVK [K24W], the “folding stability dG” value came out at 3.42 kcal/mol.

As for TTVKLGDIKVTFDNPEKAKKYAQVLAKIYQLTVHVHGDTIHVK [K24V], the “folding stability dG” value was 1.96 kcal/mol.

As for TTVKLGDIKVTFDNPEKAKKYAQLLAKIYQLTVHVHGDTIHVK [K24L], the “folding stability dG” value turned out to be 2.67 kcal/mol.

As to TTVKLGDIKVTFDNPEKAKKYAQDLAKIYQLTVHVHGDTIHVK [K24D], the “folding stability dG” value was found to be 1.36 kcal/mol.

As to TTVKLGDIKVTFDNPEKAKKYAQHLAKIYQLTVHVHGDTIHVK [K24H], the “folding stability dG” value was found to be 2.27 kcal/mol.
